Source: patent US20230287088A1 (BIONTECH, published 2023)

target: SARS-CoV-2 S1 protein (HIS tag, active trimer; Acro Biosystems #SPN-C52H8) (SARS-CoV-2, UniProt P0DTC2 16-1213); experiment: ELISA on coated S active trimer

Binder	EC50
408: Antibody anti-S1 antibody (LS) (antibody) heavy: not shown light: […]	25.6 ng/mL
P043.A.00047.H08 (protein sample ID 447) (antibody, V domains shown, also called antibody with the Protein sample ID 447) VH: QSLEESGGDLVKPGASLTLTCTASGFSFSSDGMCWVRQAPGKGLEWIACIAAGSSGSTYYATWAQGRFTISKSSSTTVTLQMTSLTAADTATYFCAGEDYTGNNYYALWGPGTLVTVSS VL: AIDMTQTPSPVSAVVGDTVTINCQASENIYSFLAWYQQKPGQPPKLLIYFASKLASGVPSRFKGSGSGTQFTLTISDVHSDDAAIYYCQQTGTYSDADNTFGGGTEVVVK	9.1 ng/mL
P043.A.00036.C07 (antibody, V domains shown, also called 448; protein sample ID 448) VH: QSLEESGGDLVKPGASLTLTCTASGFSFSSSYWICWVRQAPGKGLEWIGCIYTGSGSTWYASWAKGRFTISKTSSTTVTLQMTSLTAADTATYFCARGYGSYMYDFWGPGTLVTVSS VL: DVVMTQTPASVEAAVGGTVTIKCQASQSISTALAWYQQKPGQPPKLLIYSASTLESGVPSRFKGSGSGTEFTLAISDLESADAATYYCQGADGSSSSFGGGTEVVVK	7.7 ng/mL
P043.A.00095.D06 (protein sample ID 470) (antibody, V domains shown, also called S1 targeting antibody 470; anti-S1-antibody 470) VH: QEQLEESGGDLVKPEGSLTLTCTASGFSFSSNYWICWVRQAPGKGLEWIGCIYIGSGDTYYASWAKGRFTISKTSSTTVTLQMTSLTAADTATYFCARSYTPGSYYNMNLWGPGTLVTVSS VL: DVVMTQTPSSVSAAVGGTVTINCQASQQISNELSWYQQKSGQPPKLLIYDASDLASGVPSRFKGSGSGTEFTLTISDLESADAATYYCQSTGGASSDGNAFGGGTEVVVK	6.9 ng/mL
P043.A.00032.C04 (antibody, V domains shown, also called 452; protein sample ID 452) VH: QSLEESGGRLVTPGTPLTLTCTASGFSLSSYWMSWVRQAPGKGLEWIGIIYVSGSTYYASWAKGRFTISKTSTTVDLKMTSLTTEDTATYFCARVDYSTGWPLFNIWGPGTLVTVSL VL: AQVLTQTASPVSAAVGGTVTINCQSSQSVYDNNWLGWYQQKPGQPPKLLIYGASILASGVPSRFKGSGSGTQFTLTISDLESDDAATYYCQGGCSGNTFVFGGGTEVVVK	8.2 ng/mL
P043.A.00109.B12 (antibody, V domains shown, also called 468; protein sample ID 468) VH: QSLEESGGGLVKPEGSLTLTCKASGFDLNTYYYMCWVRQAPGKGLEWIACIATSDSGHTAYASWARGRFTISKTSSTTVTLQMTGLTAADTATYFCARGGRSVGDGVDLWGPGTLVTVSS VL: DIVMTQTPASVEAAVGGTVTIKCQASQSISSWLAWYQQKPGQPPKLLIYDASDLASGVPSRFKGSGSGTEFTLTISDLESADAATYYCQSYLYVESGSHGFGFGGGTEVVVR	10 ng/mL
P043.A.00117.C08 (protein sample ID 469) (antibody, V domains shown) VH: QSLEESGGGLVKPEGSLTLTCKASGFDLNTYYYMCWVRQAPGKGLEWIACIGTSDSGHTAYASWARGRFTISKTSSTTVTLQMTGLTAADTATYFCARGGRSVGDGVDLWGPGTLVTVSS VL: DIVMTQTPASVEAAVGGTVTIKCQASQSISSWLAWYQQKPGQPPKLLIYDAFDLASGVPSRFKGSGSGTEFTLTISDLESADAATYYCQSYLYGESGSHGFGFGGGTEVVVR	7.8 ng/mL
P043.A.00023.E05 (antibody, V domains shown, also called 443; protein sample ID 443) VH: QSLEESGGRLVTPGTPLTLTCTVSGFSLSSYAMSWVRQAPGKGLEWIGIISSSGSTYYASWAKGRFTISKTSTTVDLKITSPTTEDTATYFCARDASSRGYYYYYGMDPWGPGTLVTVSS VL: AIQMTQSPSSLAASVGDTVTITCKASEDIGYGLNWYQQKLGIAPKLLIYGANTLESGVPSRFSGSGSETDYTLTISSVQAEDAGIYYCQQGYSTPLTFGAGTKVEIK	9 ng/mL
P043.A.00023.A08 (protein sample ID 446) (antibody, V domains shown) VH: QSVEESGGRLVTPGTPLTLTCTVSGFSLSKYAMSWVRQAPGKGLEWIGIISSGGSTYYASWAKGRFTISKTSSTTVDLKITSPTTEDTATYFCARAGYPGYSPHYFNIWGPGTLVTVSL VL: AIQMTQSPSSLAASVGDTVTITCKASEDIGYELNWYQQKLGIAPKLLIYGANTLESGVPSRFTGSGSETDYTLTISSVQAEDAGIYYCQQGYSTPPTFGAGTKVEIK	5.6 ng/mL
P043.A.00097.B02 (antibody, V domains shown) VH: QELVESGGGLVQAGESLKLSCKASGIDFSSYGISWVRQAPGKGLEWIAYIYPGFGITNYANSVKGRFTISSDNAQNTVFLQMTSLTASDTATYFCTRAYASSSGYYIHYFNLWGPGTLVTVSS VL: AIQMTQSPSSLAASVGDTVTITCKASEDIGYGLNWYQQKLGIAPKLLIYGANTLESGVPSRFSGSGSETDYTLTISSVQAEDAGIYYCQQAYSTPLTFGAGTKVEIK	6.9 ng/mL
P043.A.00020.D06 (protein sample ID 444) (antibody, V domains shown) VH: QSVEESGGRLVTPGTPLTLTCTVSGFSLSSYAMNWVRQAPGKGLEWIGIISSSGSTYYASWAKGRFTISKTSTTVDLKITSPTTEDTATYFCARVGAGYAGYGYDNYYGMDPWGPGTLVTVSS VL: AIQMTQSPSSLAASVGDTVTITCKASEDIGYGLNWYQQKLGIAPKLLIYGANTLESGVPSRFSGSGSETDYTLTISSVQAEDAGIYYCQQGYSTPLTFGAGTKVEIK	11.2 ng/mL
P043.A.00017.E07 (protein sample ID 449) (antibody, V domains shown) VH: QSVEESGGRLVTPGTPLTLTCTVSGFSLSSYAMSWVRQAPGKGLEWIGIISSSGSTYYASWAKGRFTISKTSTTVDLKITSPTTEDTATYFCARAMYPGYSTGVYNIWGPGTLVTVSL VL: AIQMTQSPSSLAASVGDTVTITCKASEDIGYELNWYQQKLGIAPKLLIYGANTLESGVPSRFSGSGSETDYTLTISSVQAEDAGIYYCQQGYNTPNTFGAGTKVEIK	6.6 ng/mL
P043.A.00017.E04 (antibody, V domains shown) VH: QSVEESGGRLVTPGTPLTLTCTVSGFSLNNYAMNWVRQAPGKGLEWIGIISSSGNTYYANWAKGRFTISKTSTTVDLKITSPTTEDTATYFCARDSYPGYSPYYGMDPWGPGTLVTVSS VL: AIQMTQSPSSLAASVGDTVTITCKASEDIAYGLNWYQQKLGITPKLLIYGANTLESGVPSRFSGSGSETHYTLTISSVQAEDAGIYYCQQGYNTPPTFGAGTKVEIK	6.4 ng/mL
P043.A.00092.C12 (antibody, V domains shown, also called 472; protein sample ID 472) VH: QEELKETGGGLVQPGGSLTLSCKASGFDFSSYYMSWVRQAPGKGLEWIGVIYASKGSTDYASWVNGRFTISSDNAQNTVDLQMNSLTAADTATYYCARSKRFYTYGYAGYAYAHYYYGMDLWGPGTLVTVSS VL: AIQMTQSPSSLAASVGDTVTITCKASEDIGYGLNWYQQKLGIAPKLLIYGADTLESGVPSRFSGSGSETDYTLTISSVQAEDAGIYYCQQGYSTPLTFGAGTKVEIK	10.6 ng/mL
P043.A.00018.C02 (protein sample ID 450) (antibody, V domains shown) VH: QSVEESGGRLVTPGTPLTLTCTVSGFSLSSYAMSWVRQAPGKGLEWIGIINSGRSTYYASWAKGRFTISKTSTTVDLKITSPTTEDTATYFCARDATSIGYYRYYGMDPWGPGTLVTVSS VL: AIQMTQSPSSLAASVGDTVTITCKASEDIGYGLNWYQQKLGIAPKLLIYGANTLESGVPSRFSGSGSETDYTLTISSVQAEDAGIYYCQQGYSTPLTFGAGTKVEIK	6.6 ng/mL
P043.A.00024.C11 (protein sample ID 451) (antibody, V domains shown) VH: QSVEESGGRLVTPGTPLTLTCTVSGFSLSSYAMSWVRQAPGKGLEWIGIISSSGTTYYASWAKGPFTISKTSTTVDLKITSPTTEDTATYFCARGGAGYGYAHYYGMDPWGPGTLVTVSS VL: AIQMTQSPSSLAASVGDTVTITCKASEDIGYGLNWYQQKLGIAPKLLIYGANTLESGVPSRFSGSGSETDYTLTISSVQAEDAGIYYCQQGYSTPLTFGAGTKVEIK	8.8 ng/mL
